Measured values reported in US20180298098A1 (VAR2 PHARMACEUTICAL, published 2018).

Experiments:
[1] = target: CSPG (bovine) (D8428, Sigma) (bovine) (UniProt P21793); experiment: quartz crystal microbalance (Attana A100), CSPG coated; FCR3 Baculo
[2] = target: CSPG (bovine) (D8428, Sigma) (bovine) (UniProt P21793); experiment: quartz crystal microbalance (Attana A100), CSPG coated; 3D7 Baculo
[3] = target: T1, CSPG (bovine) (D8428, Sigma) (bovine, UniProt P21793 31-360, carries chondroitin sulfate A (CSA) glycosaminoglycan chain(s); attachment site not stated); experiment: as above
T1 construct: Commercial proteoglycan coated on the chip or plate; also called chondroitin sulfate proteoglycan; CSA proteoglycan (CSPG)

[4] = target: T1, CSPG (bovine) (D8428, Sigma); experiment: quartz crystal microbalance (Attana A100), CSPG coated
Protocol: All buffers and reagents were filtered to 0.2 μm. The ligand was CSPG (Bovine) (D8428, Sigma) or HSPG (H4777, Sigma), coated at a concentration of 100 μg/ml. Coating was done in steady state by adding ligand solution and incubation 30 minutes at room temperature. This was followed by blocking the plate with PBS containing 0.1% Ig-free BSA (BSA-50, Rockland), 30 minutes at room temperature. The Attana A100 was washed with 1% SDS prior to every experiment, using the manufacturers predefined daily wash program. Following the wash, the running buffer was switched to PBS at a flow rate of 25 μL/min, at 25° C., and the machine was allowed to stabilize at a maximum change in frequency of 0.5 Hz/min. […] Prior to sample injection PBS was injected as a blank. Analyte was injected in a 1:3 dilution series (0.25 μg/ml-60 μg/ml) starting with the lowest concentration. Association time was set to 84 seconds and disassociation time to 5 minutes. […] The data collected was processed in the Attester Evaluation software (Attana AB). Curves were fitted in a simple 1:1 model. kₒₙ and koff were determined by curve fitting and KD was calculated based KD=koff/kₒₙ.

Sequence of CSPG (bovine) (D8428, Sigma) (bovine) (P21793 31-360): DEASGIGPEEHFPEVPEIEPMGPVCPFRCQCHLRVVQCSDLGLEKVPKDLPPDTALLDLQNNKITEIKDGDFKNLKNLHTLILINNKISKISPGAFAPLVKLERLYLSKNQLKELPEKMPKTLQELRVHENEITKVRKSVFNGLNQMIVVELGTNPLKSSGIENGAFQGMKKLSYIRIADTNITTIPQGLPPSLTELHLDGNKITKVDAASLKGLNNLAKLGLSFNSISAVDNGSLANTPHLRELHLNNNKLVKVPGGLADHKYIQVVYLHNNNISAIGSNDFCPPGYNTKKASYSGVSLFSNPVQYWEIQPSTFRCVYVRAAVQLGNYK
T1 sequence (P21793 31-360): as above

| Molecule | Kd [1] | further results |
| --- | --- | --- |
| VAR2CSA DBL1-ID2b, FCR3 (Baculo) | 1.5 nM |  |
| VAR2CSA DBL2X-DBL4ε, FCR3 (Baculo) | 2.4 nM |  |
| VAR2CSA FV2, 3D7 (Baculo) |  | Kd [2]: 8.2 nM |
| VAR2CSA FV2, FCR3 (Baculo) | 5.2 nM |  |
| VAR2CSA ID1-DBL3ε, FCR3 (Baculo) | 0.3 nM |  |
| VAR2CSA ID1-DBL4ε, FCR3 (Baculo) | 8.6 nM |  |
| VAR2CSA ID1-ID2a, 3D7 (Baculo) (other, not shown: C-terminal V5 and His tag of the modified pAcGP67-A vector) NYIKGDPYFAEYATKLSFILNSSDANNPSEKIQKNNDEVCNCNESGIASVEQEQISDPSSNKTCITHSSIKANKKKVCKHVKLGVRENDKDLRVCVIEHTSLSGVENCCCQDFLRILQENCSDNKSGSSSNGSCNNKNQEACEKNLEKVLASLTNCYKCDKCKSEQSKKNNKNWIWKKSSGKEGGLQKEYANTIGLPPRTQSLCLVVCLDEKGKKTQELKNIRTNSELLKEWIIAAFHEGKNLKPSHEKKNDDNGKKLCKALEYSFADYGDLIKGTSIWDNEYTKDLELNLQKIFGKLFRKYIKKNNTAEQDTSYSSLDELRESWWNTNKKYIWLAMKHGAGMNSTTCCGDGSVTGSGSSCDDIPTIDLIPQYLRFLQEWVEHFCKQRQEKVKPVIENCKSCKESGGTCNGECKTECKNKCEVYKKFIEDCKGGDGTAGSSWVKRWDQIYKRYSKYIEDAKRNRKAGTKNCGPSSTTNAAENKCVQSDIDSFFKHLIDIGLTTPSSYLSIVLDDNICGADKAPWTTYTTYTTTEKCNKETDKSKLQQCNTAVVVNVPSPLGNTPHGYKYACQCKIPTNEETCDDRKEYMNQWSCGSARTMKRGYKNDNYELCKYNGVDVKPTTVRSNSSKLD |  | Kd [3]: 5.7 nM |
| VAR2CSA ID1-DBL2Xb, 3D7 (Baculo) (other, The 3D7 forward primer begins at LSFILN; not shown: C-terminal V5 and His tag of the modified pAcGP67-A vector) NYIKGDPYFAEYATKLSFILNSSDANNPSEKIQKNNDEVCNCNESGIASVEQEQISDPSSNKTCITHSSIKANKKKVCKHVKLGVRENDKDLRVCVIEHTSLSGVENCCCQDFLRILQENCSDNKSGSSSNGSCNNKNQEACEKNLEKVLASLTNCYKCDKCKSEQSKKNNKNWIWKKSSGKEGGLQKEYANTIGLPPRTQSLCLVVCLDEKGKKTQELKNIRTNSELLKEWIIAAFHEGKNLKPSHEKKNDDNGKKLCKALEYSFADYGDLIKGTSIWDNEYTKDLELNLQKIFGKLFRKYIKKNNTAEQDTSYSSLDELRESWWNTNKKYIWLAMKHGAGMNSTTCCGDGSVTGSGSSCDDIPTIDLIPQYLRFLQEWVEHFCKQRQEKVKPVIENCKSCKESGGTCNGECKTECKNKCEVYKKFIEDCKGGDGTAGSSWVKRWDQIYKRYSKYIEDAKRNRKAGTKNCGPSSTTNAAENKCVQSDIDSFFKHLIDIGLTTPSSYLSIVLDDNICGADKAPWTTYTTYTTTEKCNKETDKSKLQQCNTAVVVNVPSPLGNTPHGYKY |  | Kd [3]: 21.8 nM |
| VAR2CSA ID1-DBL2Xa, 3D7 (Baculo) (other, not shown: C-terminal V5 and His tag of the modified pAcGP67-A vector) LSFILNSSDANNPSEKIQKNNDEVCNCNESGIASVEQEQISDPSSNKTCITHSSIKANKKKVCKHVKLGVRENDKDLRVCVIEHTSLSGVENCCCQDFLRILQENCSDNKSGSSSNGSCNNKNQEACEKNLEKVLASLTNCYKCDKCKSEQSKKNNKNWIWKKSSGKEGGLQKEYANTIGLPPRTQSLCLVVCLDEKGKKTQELKNIRTNSELLKEWIIAAFHEGKNLKPSHEKKNDDNGKKLCKALEYSFADYGDLIKGTSIWDNEYTKDLELNLQKIFGKLFRKYIKKNNTAEQDTSYSSLDELRESWWNTNKKYIWLAMKHGAGMNSTTCCGDGSVTGSGSSCDDIPTIDLIPQYLRFLQEWVEHFCKQRQEKVKPVIENCKSCKESGGTCNGECKTECKNKCEVYKKFIEDCKGGDGTAGSSWVKRWDQIYKRYSKYIEDAKRNRKAGTKNCGPSSTTNAA |  | binding result [4]: no binding (tested: 0.25 µg/ml-60 µg/ml) |
